Data reported in patent US20200148765A1 (OSAKA UNIVERSITY, published 2020).
Residue numbers refer to the chain shown, from its start.

T1: wild-type human CLDN-5 protein (human, UniProt O00501 1-218)
T1 construct: Four-transmembrane tight junction protein expressed by retrovirus on HT-1080 (or MDCKII) cells; also called hCLDN-5; human Claudin-5 protein
T1 sequence: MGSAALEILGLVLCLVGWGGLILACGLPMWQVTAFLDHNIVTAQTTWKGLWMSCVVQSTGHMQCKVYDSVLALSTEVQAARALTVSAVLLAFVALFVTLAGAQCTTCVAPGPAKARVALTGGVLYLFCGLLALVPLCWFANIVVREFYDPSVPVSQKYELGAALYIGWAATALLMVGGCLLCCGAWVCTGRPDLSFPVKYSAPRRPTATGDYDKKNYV

T2: crab-eating macaque CLDN-5 protein (crab-eating macaque, UniProt O00501 1-218 (human entry))
T2 construct: Expressed on cells by retrovirus; also called cCLDN-5; MDCKII/cCLDN-5
T2 chain: T1 sequence with S86G, F127L, C179G, G190S

T3: mCLDN-2 protein (mouse, UniProt O88552 1-230)
T3 construct: Expressed on cells by retrovirus; also called mouse Claudin-2 protein
T3 sequence: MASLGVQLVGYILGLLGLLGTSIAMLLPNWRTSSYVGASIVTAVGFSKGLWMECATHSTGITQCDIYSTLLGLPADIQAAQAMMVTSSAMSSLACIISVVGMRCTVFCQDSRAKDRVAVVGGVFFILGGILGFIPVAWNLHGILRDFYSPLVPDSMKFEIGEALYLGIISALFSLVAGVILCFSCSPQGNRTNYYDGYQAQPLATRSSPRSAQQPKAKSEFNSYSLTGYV

T4: mCLDN-3 protein (mouse, UniProt Q9Z0G9 1-219)
T4 construct: Expressed on cells by retrovirus; also called mouse Claudin-3 protein
T4 sequence: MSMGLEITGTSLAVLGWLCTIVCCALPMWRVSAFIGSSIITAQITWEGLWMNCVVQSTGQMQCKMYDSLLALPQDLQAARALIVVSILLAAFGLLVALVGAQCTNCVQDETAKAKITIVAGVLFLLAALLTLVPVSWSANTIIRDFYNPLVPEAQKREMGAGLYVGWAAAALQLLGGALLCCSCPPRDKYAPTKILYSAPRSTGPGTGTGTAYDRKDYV

T5: mouse CLDN-5 protein (mouse, UniProt O54942 1-218)
T5 construct: Expressed on cells by retrovirus; also called mCLDN-5; MDCKII/mCLDN-5
T5 sequence: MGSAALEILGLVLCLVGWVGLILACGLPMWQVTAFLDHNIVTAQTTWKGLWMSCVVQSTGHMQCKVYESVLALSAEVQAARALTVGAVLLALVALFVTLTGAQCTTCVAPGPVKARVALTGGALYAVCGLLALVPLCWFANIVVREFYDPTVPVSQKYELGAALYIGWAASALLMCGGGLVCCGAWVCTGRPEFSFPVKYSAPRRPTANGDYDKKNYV

T6: mCLDN-1 protein (mouse, UniProt O88551 1-211)
T6 construct: Expressed on cells by retrovirus; also called mouse Claudin-1 protein
T6 sequence: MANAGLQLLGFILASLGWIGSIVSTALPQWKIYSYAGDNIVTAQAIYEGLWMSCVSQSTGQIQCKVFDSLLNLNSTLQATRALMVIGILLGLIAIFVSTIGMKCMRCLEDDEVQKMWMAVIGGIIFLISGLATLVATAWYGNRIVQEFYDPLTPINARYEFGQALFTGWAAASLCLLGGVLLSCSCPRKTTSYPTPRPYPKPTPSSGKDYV

B1: mouse anti-CLDN-5 antibody M3 (antibody, mouse IgG2b, V domains shown)
VH: EVQLQQSGPELVKPGASVKISCKASGYSFTGYYMNWVKQSPEKSLEWIGDINPSTGGATYNQKFKAKATLTVDKSSSTAYMQLKSLTSEDSAVFYCALYSNYGFVYWGQGTLVTVSA
VL: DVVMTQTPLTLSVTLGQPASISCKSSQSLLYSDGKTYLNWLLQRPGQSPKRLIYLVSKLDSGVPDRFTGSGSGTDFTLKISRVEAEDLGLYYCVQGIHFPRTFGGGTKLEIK
notes: Hybridoma monoclonal; also called antibody A
B2: rat anti-CLDN-5 antibody R2 (antibody, rat IgG2a, V domains shown)
VH: QVQLKESGPGLVQPSQTLSLTCTVSGLSLIRNSVSWIRQPPGKGLEWMGVIWSNGGTEYNSTVKSRLSISRDTSKNQVFLKMNSLQTEDSAMFFCARTPDGYYPYFDYWGQGVMVTVSS
VL: DIVLTQSPATLSVTPGESVSLSCRASQGISTSIHWYQQKSNESPRLLIRYASQSISRIPSRFSGSGSGTDFTLTINGVESEDLSVYYCQQSYNLPLTFGSGTKLEI
notes: Hybridoma monoclonal; also called antibody F
B3: rat anti-CLDN-5 antibody R3 (antibody, rat IgG2a, V domains shown)
VH: EVQLVESGGGLVQPGRSLKLSCAASGFTFSDYYMAWVRQAPKKGLEWVASISYEGRNTYYGDSVKGRFTISRDNAKSTLYLQMKSLRSEDTATYYCTRHPRRYFDYWGQGVMVTVSS
VL: DIVMTQSPSSLAVSAGETVTMNCRSSQSLFSSGDQKKFLAWYQQKPGQSPKLLISLASTRESGVPDRFIGSGSGTDFTLTINNMQAEDLAIYYCQQHYDIPYTFGAGTKLEL
notes: Hybridoma monoclonal; also called antibody G
B4: rat anti-CLDN-5 antibody R9 (antibody, rat IgG2b, V domains shown)
VH: QVTLKESGPGILQPSHTLSLTCSFSGFSLNTYGVGVNWIRQPSGKGLEWLASIWWHGKTYINPSLKNRLTVSKDPSNNQAFLEVTNVDPADTATYYCAHARAQLLDYWGQGVMVTVSS
VL: DIVMTQTPSSQAVSAGEKVTMSCKSSQSLLYSGDQKNYLAWYQQKPGQSPKLLIYLTSTRESGVPDRFIGSGSGTDFTLTISSVQAEDLADYYCQQHYSYPLTFGSGTKLEI
notes: Hybridoma monoclonal; also called antibody I
B5: rat anti-CLDN-5 antibody R14 (antibody, rat IgG2a, V domains shown)
VH: QVTLKESGPGILQPSHTLSLTCSFSGFSLSTYGMGVSWIRQPSGKGLEWLASIWWNGRTYTNPSLMSRLTVSKDTSTNQAFLRVTSVETADTATYYCAHTPYDYSNLGWFTYWGQGTLVTVSS
VL: B4 VL with V3L, M21V, N37S, T57A, E61K, S99T
notes: Hybridoma monoclonal; also called antibody K
B6: mouse anti-CLDN-5 antibody M11 (antibody, mouse IgG2b, V domains shown)
VH: QVQLKQSGPGLVQPSQSLSITCTVSGFSLIRYGVHWVRQSPGKGLEWLGVKWSGGSTDYNGAFKSRLSISKDNSKSQVFFKMNSLQADDTAIYYCARGLDGYYVPDVWGTGTSVTVS
VL: DIVMTQSHKFMSTSVGDRVSITCKASQDVSTNVAWYQQKPGQSPTLLIYWASTRHTGVPDRFTGSGSGTDYTLTISSVQAEDLALYYCQQHYSTPLTFGAGTKLELRR
notes: Hybridoma monoclonal; also called antibody B
B7: mouse anti-CLDN-5 antibody M23 (antibody, mouse IgG2b, V domains shown)
VH: EVQLQQSGPVLVKPGPSVMISCKASGFTFTDYYMHWVKQSHGKSLEWIGLVYPYNGGTDYNQKFKGKATLTVDTSSSTAYMELNSLTSEDSAVYYCARCLYDGLYFYAMDYWGQGTSVTVSS
VL: DIVMSQSPSSLAVSAGEKVTMTCKSSQSLLNSRARKNYLAWYQQKAGQSPKLLMYWASTRESGVPDRFTASGSGTDFTLTISSVQAEDLAVFYCKQSYNLPWTFGGGTKLEIKR
notes: Hybridoma monoclonal; also called antibody C
B8: mouse anti-CLDN-5 antibody M48 (antibody, mouse IgG3, V domains shown)
VH: QAYLQQSGAELVRPGASVKMSCKASGYTFTSYNMHWVKKTRRQGLEWIGAISPGNGNTSYNQKFKGKATLTVDKSSSTAYMQLSSLTSEDSAVYFCARDDGYYGALDYWGQGTSVTVSS
VL: B2 VL
notes: Hybridoma monoclonal; also called antibody E

These binders were tested against T1, wild-type human CLDN-5 protein (assay: FACS saturation binding on HT-1080/hCLDN-5, one-site fit; Lot 1).
Procedure: (§1) The obtained CLDN-expressing cells were seeded in a 10 cm dish, and on the next day, the cells were collected. The primary antibodies (100 μL) were added to the obtained 1.0×10⁵ cells and allowed to react for 1 hour at 4° C. At this time, a mixed solution of a C-CPE mutant (C-CPEmt) and a mouse anti-His tag antibody (Abeam) used in Non-Patent Literature 3 was used as positive control. The cells were washed three times with 0.2% BSA-PBS, then mixed with 100 μL of a secondary antibody solution (FITC conjugated goat anti-mouse IgG or anti-rat IgG (Jackson Immune Research, 115-095-003 or 112-095-003) 400x diluted with 1% BSA-PBS, and allowed to react for 1 hour at 4° C. The cells were washed with 0.2% BSA-TBS and then analyzed using FACS caliber (BD Bioscience).
(§2) By using HT-1080/hCLDN-5 and 100 μL of the anti-CLDN-5 antibody at each concentration diluted with 1.0% BSA-PBS, FACS assay was performed in the same manner as in Example 3-1). […] At this time, the equation of saturation binding-one site-specific binding of Graph Pad prism 7 (Graph Pad Software) was used.
B1 gave a Kd of 3.89 nM. In the case of B2, the Kd is reported as 20.1 nM. With B3 the Kd was 7.19 nM. B4 showed a Kd of 3.78 nM. B5 gave a Kd of 4.66 nM. B6 gave a Kd of 8.72 nM. B7 was tested, and the Kd was 3.77 nM. With B8 the Kd was 29.1 nM.

Biological target: T2, crab-eating macaque CLDN-5 protein
Test: FACS on CLDN-5-expressing cells, antibody 5 µg/mL
Procedure: as §1
In the same manner as in Example 1-2), a DNA fragment consisting of a cCLDN-5 protein (SEQ ID NO: 28)-encoding sequence or an mCLDN-5 protein (SEQ ID NO: 29)-encoding sequence was inserted into a pCX4pur vector, thereby obtaining vectors for preparing a retrovirus. By using these vectors with the vector for preparing a retrovirus prepared in Example 1-2), various animal species CLDN-5 protein-expressing cells were prepared. By using these cells and the antibodies (antibody concentration: 5 μg/mL, as primary antibody), FACS assay was performed in the same manner as in 3-1).
B1: binds. B3: binds. B4: binds. B5: binds. B6: binds. B7: binds.

Each binder was assayed against T1, wild-type human CLDN-5 protein (assay: FACS saturation binding on HT-1080/hCLDN-5, one-site fit; Lot 2).
Procedure: as §1, §2
B1 was tested, and the Kd was 6.41 nM. In the case of B2, the Kd is reported as 20.7 nM. For B3, the Kd was 2.44 nM. Binder B4 has a Kd of 2.75 nM. B5 showed a Kd of 8.42 nM. With B6 the Kd was 9.68 nM. In the case of B7, the Kd is reported as 2.78 nM. Binder B8 has a Kd of 8.47 nM.

Each binder was assayed against T3, mCLDN-2 protein (assay: FACS, hybridoma supernatant on CLDN-expressing cells).
Text: (§3) By the insertion of a DNA fragment consisting of an hCLDN-1 protein (SEQ ID NO: 30)-encoding sequence, an hCLDN-2 protein (SEQ ID NO: 31)-encoding sequence, an hCLDN-3 protein (SEQ ID NO 32)-encoding sequence, an hCLDN-4 protein (SEQ ID NO: 33)-encoding sequence, an hCLDN-6 protein (SEQ ID NO: 34)-encoding sequence, an hCLDN-7 protein (SEQ ID NO: 35)-encoding sequence, an mCLDN-1 protein (SEQ ID NO: 37)-encoding sequence, an mCLDN-2 protein (SEQ ID NO: 38)-encoding sequence, an mCLDN-3 protein (SEQ ID NO: 39)—encoding sequence, or an mCLDN-5 protein (SEQ ID NO: 29)-encoding sequence, vectors for preparing a retrovirus were obtained. By using these vectors and the vector for preparing a retrovirus prepared in Example 1-2), various CLDN protein-expressing cells were prepared. By using these cells and a culture supernatant of hybridomas producing antibodies as primary antibodies, FACS assay was performed by the following method.
as §1
B1: no binding. B2: no binding. B3: no binding. B4: no binding. B5: no binding. B6: no binding. B7: no binding. B8: no binding.

What follows are binders tested against T4, mCLDN-3 protein in the same assay as above.
Text: as §3, §1
B1: no binding. B2: no binding. B3: no binding. B4: no binding. B5: no binding. B6: no binding. B7: no binding. B8: no binding.

What follows are binders tested against T5, mouse CLDN-5 protein in the same assay as above.
Text: as §3, §1
B1: no binding. B2: no binding. B3: no binding. B5: no binding. B6: no binding. B7: no binding.

These binders were tested against T6, mCLDN-1 protein in the same assay as above.
Text: as §3, §1
B2: no binding. B3: no binding. B4: no binding. B5: no binding. B6: no binding. B7: no binding. B8: no binding.
